The record followed here is the supplement of paper PMC10567573.

Sequences and labels used below:
B1: PBXIP1 (parent)
chain: LPVETLGPASRMDPESERALQAPH
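Note: lentivirally expressed fusions sorted by FACS into six bins by GFP to DsRed ratio, PSI derived from sequencing read proportions per bin multiplied by bin number.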

Variants of B1 are the subject of this data set. In words: protein stability index of a GFP-peptide fusion (GPS, HEK-293T) (PSI 1-6); higher = more stable. The conditions noted are these: c terminus: a fixed tail appended.
As to LPVETLGPASRMDPESERALQALH [P23L], the protein stability index came out at 4.49.
In the case of LPVETLGPASRMDPESERALQAAH [P23A], the protein stability index was 4.09.
In the case of LPVETLGPASRMDPESERALQATH [P23T], the protein stability index turned out to be 4.57.
The figure for LPVETLGPASRMDPESERALQAMH [P23M] is 4.16; for LPVETLGPASRMDPESERALQAIH [P23I] it is 4.28; for LPVETLGPASRMDPESERALQAHH [P23H] it is 4.45.
As for LPVETLGPASRMDPESERALQAGH [P23G], the protein stability index is 5.01.
The figure for LPVETLGPASKMDPESERALQAPH [R11K] is 4.
The figure for LPVETLGPASAMDPESERALQAPH [R11A] is 4.18; for LPVETLGPASQMDPESERALQAPH [R11Q] it is 4.09.
The result for LPVETLGPASCMDPESERALQAPH [R11C] reads 4.63; that for LPVETLGPASFMDPESERALQAPH [R11F], 3.6; that for LPVETLGPASHMDPESERALQAPH [R11H], 3.71.
For the variant LPVETLGPASEMDPESERALQAPH [R11E], the protein stability index was 4.48.
For the variant LPVETLGPASRMDPESERLLQAPH [A19L], the protein stability index stood at 4.22.
As to LPVETLGPASRMDPESERVLQAPH [A19V], the protein stability index is 4.46.
Consider LPVTTLGPASRMDPESERALQAPH [E4T], for which the protein stability index amounted to 5.18.
Regarding LPVITLGPASRMDPESERALQAPH [E4I], the protein stability index is 4.98.
The figure for LPVPTLGPASRMDPESERALQAPH [E4P] is 5.25.
With LPVRTLGPASRMDPESERALQAPH [E4R], the protein stability index is 5.09.
Regarding LPVETLGPASRMDYESERALQAPH [P14Y], the protein stability index was 3.72.
In the case of LPVETLGPASRMDTESERALQAPH [P14T], the protein stability index is 4.37.
As for LPVETLGPASRMDEESERALQAPH [P14E], the protein stability index was found to be 4.61.
Consider LPVETLGPASRMDFESERALQAPH [P14F], for which the protein stability index stood at 4.32.
As to LPVETLGPASRMDKESERALQAPH [P14K], the protein stability index worked out at 4.43.
For the variant LPVETLGPASRMDIESERALQAPH [P14I], the protein stability index was 4.22.
For the variant LPVETLGPASRMDVESERALQAPH [P14V], the protein stability index turned out to be 4.42.
For the variant LPVETLGPASRMDSESERALQAPH [P14S], the protein stability index turned out to be 4.09.
The figure for LPHETLGPASRMDPESERALQAPH [V3H] is 5.34; for LPYETLGPASRMDPESERALQAPH [V3Y] it is 5.04.
With LPLETLGPASRMDPESERALQAPH [V3L], the protein stability index was 4.63.
LPFETLGPASRMDPESERALQAPH [V3F]: the protein stability index amounted to 4.88.
Regarding LPGETLGPASRMDPESERALQAPH [V3G], the protein stability index worked out at 4.78.
With LPPETLGPASRMDPESERALQAPH [V3P], the protein stability index is 5.25.
Consider LPQETLGPASRMDPESERALQAPH [V3Q], for which the protein stability index was 5.07.
The figure for LPVETLGGASRMDPESERALQAPH [P8G] is 5.57; for LPVETLGMASRMDPESERALQAPH [P8M] it is 4.16.
With LPVETLGDASRMDPESERALQAPH [P8D], the protein stability index came out at 5.46.
The figure for LPVETLGVASRMDPESERALQAPH [P8V] is 4.83; for LPVETLGTASRMDPESERALQAPH [P8T] it is 5.31.
With LPVETLGPASRMDPCSERALQAPH [E15C], the protein stability index came to 3.82.
In the case of LPVETLGPASRMDPGSERALQAPH [E15G], the protein stability index was 3.99.
Consider LPVETLGPASRMDPFSERALQAPH [E15F], for which the protein stability index was found to be 3.81.
As for LPVETLGPASRMDPRSERALQAPH [E15R], the protein stability index turned out to be 4.19.
Regarding LPVETLGPASRMDPDSERALQAPH [E15D], the protein stability index was found to be 5.08.
Take LPVETLGPASRMDPESVRALQAPH [E17V]: the protein stability index is 4.62.
For LPVETLGPASRMDPESARALQAPH [E17A], the protein stability index is 3.65.
The result for LPVETLGPASRMDPESRRALQAPH [E17R] reads 3.91; that for LPVETLGPASRMDPEWERALQAPH [S16W], 4.12; that for LPVETLGPASRMDPEYERALQAPH [S16Y], 4.05.
LPVETLGPASRMDPEDERALQAPH [S16D]: the protein stability index was 4.54.
LPVETLGPASRMDPELERALQAPH [S16L]: the protein stability index is 2.83.
For the variant LPVETLGPASRMDPEHERALQAPH [S16H], the protein stability index worked out at 4.25.
Regarding WPVETLGPASRMDPESERALQAPH [L1W], the protein stability index was 5.13.
Consider GPVETLGPASRMDPESERALQAPH [L1G], for which the protein stability index was found to be 5.38.
For NPVETLGPASRMDPESERALQAPH [L1N], the protein stability index stood at 5.38.
The result for DPVETLGPASRMDPESERALQAPH [L1D] reads 5.07.
On to MPVETLGPASRMDPESERALQAPH [L1M], for which the protein stability index came out at 4.43.
On to FPVETLGPASRMDPESERALQAPH [L1F], for which the protein stability index was found to be 4.61.
Consider CPVETLGPASRMDPESERALQAPH [L1C], for which the protein stability index came out at 3.66.
The result for APVETLGPASRMDPESERALQAPH [L1A] reads 5.48; that for VPVETLGPASRMDPESERALQAPH [L1V], 4.65.
For RPVETLGPASRMDPESERALQAPH [L1R], the protein stability index turned out to be 4.72.
Turning to YPVETLGPASRMDPESERALQAPH [L1Y], the protein stability index is 5.17.
Consider LTVETLGPASRMDPESERALQAPH [P2T], for which the protein stability index amounted to 4.36.
Regarding LYVETLGPASRMDPESERALQAPH [P2Y], the protein stability index was found to be 3.13.
As for LFVETLGPASRMDPESERALQAPH [P2F], the protein stability index was 3.42.
On to LPVETLGPASRMMPESERALQAPH [D13M], for which the protein stability index was determined as 4.11.
The result for LPVETLGPASRMKPESERALQAPH [D13K] reads 3.98; that for LPVETLGPASRMPPESERALQAPH [D13P], 4.13; that for LPVETLGPASRMNPESERALQAPH [D13N], 4.66.
Turning to LPVETLGPASRMCPESERALQAPH [D13C], the protein stability index turned out to be 3.64.
For LPVETLGPASRMGPESERALQAPH [D13G], the protein stability index was determined as 4.41.
LPVETLGPASRMDPESERARQAPH [L20R]: the protein stability index was 4.86.
Turning to LPVETLGPASRMDPESERACQAPH [L20C], the protein stability index amounted to 3.99.
Consider LPVETLGPASRMDPESERAKQAPH [L20K], for which the protein stability index worked out at 4.41.
Consider LPVETLGPASRMDPESERAVQAPH [L20V], for which the protein stability index was 3.82.
LPVETLGPASRMDPESERAAQAPH [L20A]: the protein stability index was 4.26.
For LPVETLGPASRMDPESERALLAPH [Q21L], the protein stability index came out at 3.96.
For LPVETLGPASRMDPESERALGAPH [Q21G], the protein stability index is 3.97.
The result for LPVETLGPASRMDPESERALWAPH [Q21W] reads 3.22; that for LPVETLGPASRMDPESERALEAPH [Q21E], 4.79; that for LPVETLGPASRMDPESERALSAPH [Q21S], 4.45.
Take LPVETPGPASRMDPESERALQAPH [L6P]: the protein stability index amounted to 5.41.
The figure for LPVETMGPASRMDPESERALQAPH [L6M] is 5.3; for LPVETKGPASRMDPESERALQAPH [L6K] it is 5.03.
The figure for LPVEDLGPASRMDPESERALQAPH [T5D] is 5.49; for LPVEWLGPASRMDPESERALQAPH [T5W] it is 4.65.
In the case of LPVEFLGPASRMDPESERALQAPH [T5F], the protein stability index is 4.89.
The result for LPVEKLGPASRMDPESERALQAPH [T5K] reads 4.38; that for LPVEALGPASRMDPESERALQAPH [T5A], 5.26.
On to LPVELLGPASRMDPESERALQAPH [T5L], for which the protein stability index was determined as 3.9.
For the variant LPVEHLGPASRMDPESERALQAPH [T5H], the protein stability index came to 4.72.
As for LPVETLGPASRMDPESEWALQAPH [R18W], the protein stability index was 3.66.
